Reference: article PMC11410209

Biological target: 2526 IgG3
Assay: ELISA
Settings: read off a plot

Substance | response (parent: est. 4.0) | response
H1 NC99 trimer, wild type HA (Fig 5A) (from UniProt Q6WG00) N23T | 2.8 Abs (450nm) | 
WT-NTD N61A |  | 2.7 Abs (450nm)
WT-NTD N149A |  | 1 Abs (450nm)
WT-NTD N165A |  | 2.7 Abs (450nm)
WT-NTD N234A |  | 1.7 Abs (450nm)
